Common to all, as to experiment: affinity purification with mass spectrometry; tandem affinity purification of TAP-tagged Epl1 or Ada2 from lysates of TRA1 or tra1 Q3 strains (260 mg or 170 mg protein): IgG beads 2 h at 4°, IPP150 (10 mM Tris-HCl pH 8.0, 150 mM NaCl), TEV cleavage, calmodulin beads, EGTA elution; SDS-PAGE, Coomassie Brilliant Blue; bands identified by MALDI mass spectrometry or predicted from mass; band intensity by ImageJ

Test [1] has as its target TAP-tagged Ada2 (S. cerevisiae) (UniProt Q02336).
In test [2] the target is TAP-tagged Epl1 (S. cerevisiae) (UniProt P43572).
Chain of TAP-tagged Epl1 (S. cerevisiae) (P43572 whole entry): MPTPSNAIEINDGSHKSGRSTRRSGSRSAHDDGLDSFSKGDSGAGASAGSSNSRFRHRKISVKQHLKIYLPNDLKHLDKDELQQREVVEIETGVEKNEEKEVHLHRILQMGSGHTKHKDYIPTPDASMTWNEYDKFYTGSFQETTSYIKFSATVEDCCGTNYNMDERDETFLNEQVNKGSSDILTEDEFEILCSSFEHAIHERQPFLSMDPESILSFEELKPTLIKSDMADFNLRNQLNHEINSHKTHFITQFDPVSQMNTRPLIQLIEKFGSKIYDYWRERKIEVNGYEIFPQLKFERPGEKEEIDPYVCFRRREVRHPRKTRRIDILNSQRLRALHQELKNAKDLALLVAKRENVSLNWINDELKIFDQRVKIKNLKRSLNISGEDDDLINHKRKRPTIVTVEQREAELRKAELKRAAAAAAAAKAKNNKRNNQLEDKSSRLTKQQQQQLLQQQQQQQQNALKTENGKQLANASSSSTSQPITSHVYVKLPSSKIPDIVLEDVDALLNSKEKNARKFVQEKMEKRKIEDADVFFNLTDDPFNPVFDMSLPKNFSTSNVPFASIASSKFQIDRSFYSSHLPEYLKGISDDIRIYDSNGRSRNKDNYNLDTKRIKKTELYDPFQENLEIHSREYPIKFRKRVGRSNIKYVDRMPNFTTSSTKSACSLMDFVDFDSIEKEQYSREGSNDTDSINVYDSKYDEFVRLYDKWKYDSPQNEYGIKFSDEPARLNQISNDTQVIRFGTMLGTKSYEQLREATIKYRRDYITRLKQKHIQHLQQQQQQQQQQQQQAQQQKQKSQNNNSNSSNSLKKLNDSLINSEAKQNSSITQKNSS
Test [3] has as its target T1, TAP-tagged Ada2 (S. cerevisiae, UniProt Q02336 1-434).
T1 construct: Ada2, SAGA component, S. cerevisiae; TAP-tagged ADA2; Held on IgG beads, released with TEV protease, then held on calmodulin beads, so part of the TAP tag is cut off during the purification; also called TAP-Ada2; TAP-ADA2; source: S. cerevisiae strain with TAP-tagged ADA2 (bought: Open Biosystems YSC1178-202230655; crossed with CY6582 for the tra1 Q3 strain CY7042), in lysate of cells ground in …
T1 sequence (looked up): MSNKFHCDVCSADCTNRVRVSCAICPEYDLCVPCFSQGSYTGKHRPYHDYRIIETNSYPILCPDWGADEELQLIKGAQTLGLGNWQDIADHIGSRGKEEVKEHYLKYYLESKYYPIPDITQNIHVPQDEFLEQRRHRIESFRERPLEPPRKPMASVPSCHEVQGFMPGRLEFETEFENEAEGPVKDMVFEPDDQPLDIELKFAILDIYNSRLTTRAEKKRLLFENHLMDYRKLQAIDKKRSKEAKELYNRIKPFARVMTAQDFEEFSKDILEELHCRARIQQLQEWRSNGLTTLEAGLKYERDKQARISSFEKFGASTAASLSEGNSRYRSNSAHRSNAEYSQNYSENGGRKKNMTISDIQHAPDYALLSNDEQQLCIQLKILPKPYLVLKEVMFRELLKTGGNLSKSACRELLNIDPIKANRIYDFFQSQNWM
Conditions: partners not purified.

Regarding “Tra1 Q3 (R3389Q, R3390Q, R3456Q), P38811 1-3744”, the values for the fold decrease against wild-type Tra1 in test [1] and in test [2] were 6.5 fold and 6.7 fold, respectively.

B1: full length Spt20 (natural protein, UniProt P50875 1-604, looked up)
chain: MSANSPTGNDPHVFGIPVNATPSNMGSPGSPVNVPPPMNPAVANVNHPVMRTNSNSNANEGTRTLTREQIQQLQQRQRLLLQQRLLEQQRKQQALQNYEAQFYQMLMTLNKRPKRLYNFVEDADSILKKYEQYLHSFEFHIYENNYKICAPANSRLQQQQKQPELTSDGLILTKNNETLKEFLEYVARGRIPDAIMEVLRDCNIQFYEGNLILQVYDHTNTVDVTPKENKPNLNSSSSPSNNNSTQDNSKIQQPSEPNSGVANTGANTANKKASFKRPRVYRTLLKPNDLTTYYDMMSYADNARFSDSIYQQFESEILTLTKRNLSLSVPLNPYEHRDMLEETAFSEPHWDSEKKSFIHEHRAESTREGTKGVVGHIEERDEFPQHSSNYEQLMLIMNERTTTITNSTFAVSLTKNAMEIASSSSNGVRGASSSTSNSASNTRNNSLANGNQVALAAAAAAAAVGSTMGNDNNQFSRLKFIEQWRINKEKRKQQALSANINPTPFNARISMTAPLTPQQQLLQRQQQALEQQQNGGAMKNANKRSGNNATSNNNNNNNNLDKPKVKRPRKNAKKSESGTPAPKKKRMTKKKQSASSTPSSTTMS
notes: Spt20, S. cerevisiae, full length band in the TAP-Ada2 purification; source: endogenous, S. cerevisiae lysate
For the molecule B1, the “fold decrease of full length Spt20 in the TAP-Ada2 pull down, tra1 Q3 strain against the wild-type strain” value in test [3] is 2.1 fold.
